Consider nine molecules from patent publication US20080166352A1 (Amgen, published 2008).

For experiment [1], the target named is T1, full-length human B7RP-1 on cells (human, UniProt O75144 19-302).
T1 sequence (looked up): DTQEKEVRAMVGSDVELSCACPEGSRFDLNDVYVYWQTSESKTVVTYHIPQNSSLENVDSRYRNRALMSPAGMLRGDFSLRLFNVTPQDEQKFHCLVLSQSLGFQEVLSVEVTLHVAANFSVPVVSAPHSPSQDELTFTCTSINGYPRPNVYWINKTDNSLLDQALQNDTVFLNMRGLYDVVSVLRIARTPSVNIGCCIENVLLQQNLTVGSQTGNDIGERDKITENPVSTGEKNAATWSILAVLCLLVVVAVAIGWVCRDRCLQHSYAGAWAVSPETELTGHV
Put plainly: cell-based or functional assay.

Experiment [2] addresses T2, human B7RP1-Fc fusion protein (human, UniProt O75144 19-256, limits assumed).
T2 construct: also called hB7RP-1-Fc; hB7RP1Fc; not shown: Fc part
T2 sequence (looked up): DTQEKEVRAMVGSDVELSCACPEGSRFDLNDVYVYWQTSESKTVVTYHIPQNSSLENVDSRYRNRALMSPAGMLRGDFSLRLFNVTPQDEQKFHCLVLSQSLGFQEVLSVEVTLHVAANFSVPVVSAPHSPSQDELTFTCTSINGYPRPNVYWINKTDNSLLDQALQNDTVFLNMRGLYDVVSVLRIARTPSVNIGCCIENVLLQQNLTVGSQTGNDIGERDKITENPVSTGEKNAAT
The experiment is described as follows: Biacore Fc column of Table 4. On the technique in general: Surface plasmon resonance follows binding to a sensor surface in real time, without labels.

Experiment [3] addresses T3, human B7RP-1 Ig2 (IgC-like) domain fused to chicken avidin (human; chicken, UniProt O75144 120-246).
T3 construct: Order of the parts not certain ('N-terminal, in-frame fusions with chicken avidin'); also called Ig2 domain; membrane-proximal Ig2 domain; not shown: chicken avidin
T3 sequence: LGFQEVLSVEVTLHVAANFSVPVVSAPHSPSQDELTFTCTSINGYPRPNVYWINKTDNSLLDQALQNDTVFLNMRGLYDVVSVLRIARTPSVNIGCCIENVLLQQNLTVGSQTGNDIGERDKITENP
Put plainly: avidin fusion on biotin-coated beads, fluorescently labeled ICOS-Fc, flow cytometry. The procedure:
(§1) Experiments were conducted to identify the region on B7RP-1 to which the 16H/16Hg and 5D monoclonal antibodies bind. To do this a novel Fluorescence-Activated Cell Sorter (FACS) binding assay was developed. The human extracellular domain (ECD) of B7RP1 (SEQ ID NO: 66) as well as truncated forms of B7RP-1 containing either the Ig1 (IgV-like; SEQ ID NO: 67) or the Ig2 (IgC-like; SEQ ID NO: 68) were expressed as N-terminal, in-frame fusions with chicken avidin.
(§2) Expression vectors containing genes encoding these fusion proteins were individually transiently transfected into 293T cells and the conditioned media from these cell lines were used as the source of fusion protein. The avidin-tag was used to capture the B7R-1 fusion proteins from solution using a biotin-coated bead. Fusion proteins were incubated with either fluorescently-labeled 16H or 5D mAbs or a fluorescently-labeled ICOS-Fc fusion protein, and incubated with biotin-coated beads The beads were recovered and analyzed using flow cytometry on a Becton-Dickinson Bioscience FACScan (BD, Franklin Lakes, N.J.). […] Thus, the ICOS, 16H, and 5D binding regions on B7RP-1 were located in the Ig1 domain

The target of experiment [4] is T2, human B7RP1-Fc fusion protein. The experiment is described as follows: cell-based or functional assay.
For experiment [5] the target is unchanged. Put plainly: Biacore Fc column of Table 4 (same value as Table 3). The procedure: (§3) A fixed concentration of mAb was then incubated with varying concentrations of B7RP-1 or B7RP1-Fc for at least eight hours at room temperature to allow them to reach equilibrium. The samples were then injected over the B7RP1-Fc surface, and the binding signal observed represented free antibody remaining in solution at equilibrium.

In experiment [6] the target is T4, soluble recombinant human B7RP-1 (human, UniProt O75144 19-256, limits assumed).
T4 construct: also called hB7RP-1; soluble B7RP-1
T4 sequence (looked up): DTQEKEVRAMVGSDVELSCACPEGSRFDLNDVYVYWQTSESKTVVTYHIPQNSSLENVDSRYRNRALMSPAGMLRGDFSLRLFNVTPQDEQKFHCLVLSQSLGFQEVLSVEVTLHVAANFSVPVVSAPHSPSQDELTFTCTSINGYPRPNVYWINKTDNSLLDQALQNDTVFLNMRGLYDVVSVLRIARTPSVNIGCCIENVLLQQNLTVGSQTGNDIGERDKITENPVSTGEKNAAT
Put plainly: Biacore mono column of Table 4 (same value as Table 3). The procedure:
as §3

In experiment [7] the target is T3, human B7RP-1 Ig2 (IgC-like) domain …. Put plainly: avidin fusion on biotin-coated beads, fluorescently labeled 5D, flow cytometry. The procedure:
as §1, §2
(A flow cytometer gives signals particle by particle.)

Experiment [8] addresses T4, soluble recombinant human B7RP-1. Put plainly: KinExA, dual-curve fit at [Ab] 100 pM and 300 pM, hB7RP-1 titrated in solution. The procedure: (§4) Binding of 5D, 2H, and 2H germline antibodies was also tested using KinExA (kinetic exclusion assay) technology. In this assay, hB7RP-1 was coupled to agarose beads. The beads were used to create a bead column. Samples containing antibody at a fixed concentration, which were allowed to come to equilibrium with varying concentrations of hB7RP-1, were then passed over the bead column. Antibody not complexed with ligand bound to the coated beads.
(§5) A fluorescent tagged anti-human Fc secondary antibody was used to detect bound test antibody.
A general note: In KinExA the mixture passes briefly over coated beads that capture the unbound partner.

Experiment [9] deals with T2, human B7RP1-Fc fusion protein. Put plainly: Biacore solution equilibrium: mAb pre-incubated with B7RP1-Fc, free mAb read on immobilized B7RP1-Fc. The procedure:
as §3

Experiment [10] has as its target T4, soluble recombinant human B7RP-1. The experiment is described as follows: Biacore solution equilibrium: mAb pre-incubated with soluble B7RP-1, free mAb read on immobilized B7RP1-Fc. The procedure:
as §3

In experiment [11] the target is T3, human B7RP-1 Ig2 (IgC-like) domain …. Put plainly: avidin fusion on biotin-coated beads, fluorescently labeled 16H, flow cytometry. The procedure: as §2
Experiment [12] has as its target T4, soluble recombinant human B7RP-1. Put plainly: KinExA, hB7RP-1 on agarose beads, antibody equilibrated with hB7RP-1 in solution. The procedure:
as §4, §5

The target in experiment [13] is T3, human B7RP-1 Ig2 (IgC-like) domain …. The experiment is described as follows: flow cytometry of biotin-coated beads capturing the avidin fusion protein, stained with fluorescently labelled antibody.

B1: ICOS-Fc fusion protein (Fc fusion, UniProt Q9Y6W8 21-140, looked up)
chain: EINGSANYEMFIFHNGGVQILCKYPDIVQQFKMQLLKGGQILCDLTKTKGSGNTVSIKSLKFCHSQLSNNSVSFFLYNLDHSHANYYFCNLSIFDPPPFKVTLTGGYLHIYESQLCCQLK
notes: Fluorescently labelled in the flow cytometry assays; also called ICOS reagent; not shown: Fc part
As to B1, in experiment [1], the “CHO (co-stimulation assay with hB7RP1 transfected CHO cells, T cell proliferation) EC50” value (“CHO” below) was found to be 10.7 nM. Further, the Kd in experiment [2] was determined as 1 nM. Moreover, the binding result in experiment [3] was “no binding”.

B2: anti-B7RP1 human monoclonal antibody 5D (antibody, V domains shown)
VH: QVQLVESGGGVVQPGRSLRLSCAASGFTFSSYGMHWVRQAPGKGLEWVAVIWYDGSKKYYADSVEGRFTISRDNSKNTLYLQMNSLRAEDTAVFYCARDLNIMVWGIFDYWGQGTLVTVSS
VL: EIVLTQSPATLSLSPGERATLSCRASQSVSSYLAWYQQKPGQAPRLLIYDASNRATGIPARFSGSGSGTDFTLTISSLEPEDFAVYYCQQRNNWPWTFGQGTKVEIK
notes: Fluorescently labelled in the flow cytometry assays; also called 5D mAb; B7RP-1 5D
As to B2, the “Plate (co-stimulation assay, T cell proliferation) EC50” value (“Plate” for short) in experiment [4] amounted to 0.055 nM. Moreover, in experiment [1], the “CHO” value was determined as 1.46 nM. Further, the equilibrium dissociation constant (Kd) in [5] worked out at 0.0016 nM; in [6], 0.037 nM; in experiment [8] it was 0.018 nM; in experiment [9] it was 0.0016 nM; in experiment [10], 0.037 nM. In addition, the binding result in experiment [7] is listed as “no binding”.

B3: anti-B7RP1 human monoclonal antibody 15H (antibody, V domains shown)
VH: EVQLVQSGGGLVHPGGSLRLSCAGSGFTFSSYAMHWVRQAPGKGLEWVSAIGTGGGTYYADSVKGRFTISRDNAKNSLYLQMNSLRAEDMAMYYCAKSGVPLLWFGEFYWGQGTLVTVSS
VL: not shown
In the case of B3, the “Plate” value in [4] is 0.036 nM.

B4: anti-B7RP1 human monoclonal antibody 16H (antibody, V domains shown)
VH: EVQLVESGGGLVQPGGSLRLSCAGSGFTFSSYWMSWVRQAPGKGLEWVAYIKQDGNEKYYVDSVKGRFTISRDNAKKSLYLQMNSLRAEDTAVYYCAREGILWFGDLPTFWGQGILVTVSS
VL: DIQMTQSPSSLSASVGDRVTITCRASQGISNWLAWYQQKPEKAPKSLIYAASSLQSGVPSRFSGSGSGTDFTLTISSLQPEDFATYYCQQYDSYPRTFGQGTKVEIK
notes: Fluorescently labelled in the flow cytometry assays; also called 16H mAb; B7RP-1 16H
On to B4, for which, in experiment [4], the “Plate” value was 0.053 nM. In experiment [1], the “CHO” value was 0.276 nM. Also, the Kd in experiment [5] turned out to be 0.027 nM; in experiment [6] it was 1.9 nM; in experiment [9], 0.027 nM; in [10], 1.9 nM. In experiment [11], the binding result was “no binding”.

B5: anti-B7RP1 human monoclonal antibody 2H germline (antibody, V domains shown)
VH: EVQLVESGGGLVQPGGSLRLSCAASGFTFSSYWMSWVRQAPGKGLEWVAYIKQDGSEKYYVDSVKGRFTISRDNAKNSLYLQMNSLRAEDTAVYYCARDGILWFGDIPTYWGQGTLVTVSS
VL: DIQMTQSPSSLSASVGDRVTITCRASQGISNWLAWYQQKPEKAPKSLIYTASSLQSGVPSRFSGSGSGTDFTLTISSLQPEDFATYYCQQYNSYPRTFGQGTKVEIK
As for B5, the Kd in experiment [8] was 0.4 nM.

B6: anti-B7RP1 human monoclonal antibody 43H (antibody, V domains shown)
VH: EVQLVQSGGGLVHPGGSLRLSCAGSGFTFSSYAMHWVRQAPGKGLEWVSAIGAGGGTYYADSVKGRFTISRDNAKNSLYLQMNSLRAEDMAVYYCARVVVVVGFFDYWGQGTLVTVSS
VL: DIQMTQSPSSLSASVGDRVTITCRASQGISSWLAWYQQKPEKAPKSLIFAASSLQSGVPSRFSGSGSGTDFTLTISSLQPEDFATYYCQQYNSYPYTFGQGTKLEIK
Regarding B6, the “Plate” value in experiment [4] was determined as 0.046 nM.

B7: anti-B7RP1 human monoclonal antibody 2H (antibody, V domains shown)
VH: EVQLVESGGGLVQPGGSLRLSCVGSGFTFSSYWMSWVRQAPGKGLEWVAYIKQDGSEKYYVDSVKGRFTISRDNAKNSLYLQMNSLRAEDTAVYYCARDGILWFGDIPTYWGQGILVTVSS
VL: DIQMTQSPSSLSASVGDRVTITCRASQGISNWLAWYQQKPEKAPKSLIYTASSLQSGVPSRFSGSGSGTDFTLTISSLQPEDFATYYCQQYNSYPRTFGQGTKVEIK
Take B7: the “Plate” value in experiment [4] was 0.043 nM. Also, the “CHO” value in [1] amounted to 1.45 nM. Besides, the figures for the equilibrium dissociation constant (Kd) in experiment [2] and in experiment [8] were 0.089 nM and 0.33 nM, respectively. The “fold difference in KD against 5D” value in [12] is ~10 fold. Besides, the binding result in [13] was “no binding”.

B8: anti-B7RP1 human monoclonal antibody 16H germline (antibody, V domains shown)
VH: EVQLVESGGGLVQPGGSLRLSCAASGFTFSSYWMSWVRQAPGKGLEWVAYIKQDGNEKYYVDSVKGRFTISRDNAKNSLYLQMNSLRAEDTAVYYCAREGILWFGDLPTFWGQGTLVTVSS
VL: DIQMTQSPSSLSASVGDRVTITCRASQGISNWLAWYQQKPEKAPKSLIYAASSLQSGVPSRFSGSGSGTDFTLTISSLQPEDFATYYCQQYDSYPRTFGQGTKVEIK
Regarding B8, the “Plate” value in [4] is 0.032 nM. The “CHO” value in [1] was 0.523 nM. Moreover, the Kd in experiment [5] was determined as 0.017 nM; in experiment [6], 2.7 nM; in experiment [9] it was 0.017 nM; in experiment [10], 2.7 nM.

B9: anti-B7RP1 human monoclonal antibody 41H (antibody, V domains shown)
VH: EVQLVESGGGLVQPGGSLRLSCAASGFTFSSYWMSWVRQAPGKGLEWVAYIKQDGSEKYYVDSVKGRFTISRDNAKNSLYLQMNSLRAEDTAVYYCARDGILWFGDLPTYWGQGTLVTVSS
VL: DIQMTQSPSSLSASVGDRVTITCRASQGISSWLAWYQQKPEKAPKSLIYAASSLQSGVPSRFSGSGSGTDFTLTISSLQPEDFATYYCQQYNTYPRTFGQGTKVEIK
With B9, the “Plate” value in experiment [4] came to 0.052 nM.

A word on the Kd: it is the constant that tells how readily two partners part at equilibrium.
